System: Escherichia coli TOP10
Assay: shrunken log2 fold change of peptide-encoding DNA abundance (4.5 h post-induction vs induction); higher = less antimicrobial activity (less host growth inhibition)
Settings: time post-induction: 4.5 h; library: site-saturation at positions 5, 18, 19, 20
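Also: peptides expressed intracellularly from a pBAD plasmid library in pooled LB shake-flask culture, induced with 0.3% L-arabinose, DNA abundance read by NGS, three biological replicates, DESeq2 with apeglm shrinkage.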

RRIRYRPPRLPRPRPRPLFKPRP
shrunken log2 fold change: -0.646

RRIRYRPPRLPRPRPRPLGDPRP
shrunken log2 fold change: -0.079

RRIRYRPPRLPRPRPRPLGIPRP
shrunken log2 fold change: -0.576

RRIRYRPPRLPRPRPRPLGVPRP
shrunken log2 fold change: -0.0163

RRIRYRPPRLPRPRPRPLHRPRP
shrunken log2 fold change: -0.116

RRIRYRPPRLPRPRPRPLIDPRP
shrunken log2 fold change: -0.00288

RRIRYRPPRLPRPRPRPLKAPRP
shrunken log2 fold change: 0.141

RRIRYRPPRLPRPRPRPLKMPRP
shrunken log2 fold change: -0.26

RRIRYRPPRLPRPRPRPLMIPRP
shrunken log2 fold change: -1.73

RRIRYRPPRLPRPRPRPLNSPRP
shrunken log2 fold change: -0.0402

RRIRYRPPRLPRPRPRPLRSPRP
shrunken log2 fold change: 0.538

RRIRYRPPRLPRPRPRPLRWPRP
shrunken log2 fold change: 0.184

RRIRYRPPRLPRPRPRPLSHPRP
shrunken log2 fold change: -0.678

RRIRYRPPRLPRPRPRPLSPPRP
shrunken log2 fold change: -0.352

RRIRYRPPRLPRPRPRPLTMPRP
shrunken log2 fold change: -0.529

RRIRYRPPRLPRPRPRPLWFPRP
shrunken log2 fold change: -0.494

RRIRYRPPRLPRPRPRPLWRPRP
shrunken log2 fold change: 0.0545

RRIRYRPPRLPRPRPRPLYLPRP
shrunken log2 fold change: -0.992

RRIRYRPPRLPRPRPRPMARPRP
shrunken log2 fold change: -0.0425

RRIRYRPPRLPRPRPRPMCAPRP
shrunken log2 fold change: -0.208

RRIRYRPPRLPRPRPRPMISPRP
shrunken log2 fold change: -0.126

RRIRYRPPRLPRPRPRPMKHPRP
shrunken log2 fold change: -0.495

RRIRYRPPRLPRPRPRPMLWPRP
shrunken log2 fold change: -0.0139

RRIRYRPPRLPRPRPRPMMLPRP
shrunken log2 fold change: -0.00141

RRIRYRPPRLPRPRPRPMMTPRP
shrunken log2 fold change: -0.111

RRIRYRPPRLPRPRPRPMMYPRP
shrunken log2 fold change: -0.00674

RRIRYRPPRLPRPRPRPMNMPRP
shrunken log2 fold change: -0.139

RRIRYRPPRLPRPRPRPMPMPRP
shrunken log2 fold change: -0.319

RRIRYRPPRLPRPRPRPMPNPRP
shrunken log2 fold change: -0.0961

RRIRYRPPRLPRPRPRPMPYPRP
shrunken log2 fold change: -0.0899

RRIRYRPPRLPRPRPRPMQNPRP
shrunken log2 fold change: -0.488

RRIRYRPPRLPRPRPRPMRCPRP
shrunken log2 fold change: -0.000627

RRIRYRPPRLPRPRPRPMSWPRP
shrunken log2 fold change: -0.0422

RRIRYRPPRLPRPRPRPMTRPRP
shrunken log2 fold change: -0.139

RRIRYRPPRLPRPRPRPMYKPRP
shrunken log2 fold change: -0.28

RRIRYRPPRLPRPRPRPMYSPRP
shrunken log2 fold change: -0.018

RRIRYRPPRLPRPRPRPNAHPRP
shrunken log2 fold change: -0.395

RRIRYRPPRLPRPRPRPNAIPRP
shrunken log2 fold change: -0.0737

RRIRYRPPRLPRPRPRPNAQPRP
shrunken log2 fold change: -0.0122

RRIRYRPPRLPRPRPRPNCSPRP
shrunken log2 fold change: -0.973

RRIRYRPPRLPRPRPRPNEFPRP
shrunken log2 fold change: -0.498

RRIRYRPPRLPRPRPRPNEHPRP
shrunken log2 fold change: -0.268

RRIRYRPPRLPRPRPRPNFCPRP
shrunken log2 fold change: -0.00468

RRIRYRPPRLPRPRPRPNFLPRP
shrunken log2 fold change: -0.623

RRIRYRPPRLPRPRPRPNGLPRP
shrunken log2 fold change: -0.0845

RRIRYRPPRLPRPRPRPNHRPRP
shrunken log2 fold change: -0.767

RRIRYRPPRLPRPRPRPNIWPRP
shrunken log2 fold change: -0.302

RRIRYRPPRLPRPRPRPNKVPRP
shrunken log2 fold change: -0.596

RRIRYRPPRLPRPRPRPNMVPRP
shrunken log2 fold change: -0.0169

RRIRYRPPRLPRPRPRPNNDPRP
shrunken log2 fold change: -1.14

RRIRYRPPRLPRPRPRPNPHPRP
shrunken log2 fold change: -0.639

RRIRYRPPRLPRPRPRPNRLPRP
shrunken log2 fold change: -0.0455

RRIRYRPPRLPRPRPRPNSIPRP
shrunken log2 fold change: -0.737

RRIRYRPPRLPRPRPRPNSPPRP
shrunken log2 fold change: -0.21

RRIRYRPPRLPRPRPRPNSQPRP
shrunken log2 fold change: -0.85

RRIRYRPPRLPRPRPRPNWDPRP
shrunken log2 fold change: -0.863

RRIRYRPPRLPRPRPRPNWLPRP
shrunken log2 fold change: -0.226

RRIRYRPPRLPRPRPRPNWTPRP
shrunken log2 fold change: -0.00491

RRIRYRPPRLPRPRPRPNYIPRP
shrunken log2 fold change: -1.2

RRIRYRPPRLPRPRPRPNYTPRP
shrunken log2 fold change: -0.562

RRIRYRPPRLPRPRPRPPAHPRP
shrunken log2 fold change: 0.178

RRIRYRPPRLPRPRPRPPCSPRP
shrunken log2 fold change: -0.957

RRIRYRPPRLPRPRPRPPDIPRP
shrunken log2 fold change: -0.157

RRIRYRPPRLPRPRPRPPDNPRP
shrunken log2 fold change: -0.185

RRIRYRPPRLPRPRPRPPFDPRP
shrunken log2 fold change: -0.565

RRIRYRPPRLPRPRPRPPFPPRP
shrunken log2 fold change: -0.0826

RRIRYRPPRLPRPRPRPPFRPRP
shrunken log2 fold change: -0.0932

RRIRYRPPRLPRPRPRPPGFPRP
shrunken log2 fold change: 0.184

RRIRYRPPRLPRPRPRPPHNPRP
shrunken log2 fold change: -0.275

RRIRYRPPRLPRPRPRPPHVPRP
shrunken log2 fold change: -0.142

RRIRYRPPRLPRPRPRPPICPRP
shrunken log2 fold change: -0.801

RRIRYRPPRLPRPRPRPPIMPRP
shrunken log2 fold change: -1.14

RRIRYRPPRLPRPRPRPPLCPRP
shrunken log2 fold change: -0.173

RRIRYRPPRLPRPRPRPPMEPRP
shrunken log2 fold change: 0.0358

RRIRYRPPRLPRPRPRPPMSPRP
shrunken log2 fold change: -0.612

RRIRYRPPRLPRPRPRPPNDPRP
shrunken log2 fold change: -0.151

RRIRYRPPRLPRPRPRPPNVPRP
shrunken log2 fold change: 0.0158

RRIRYRPPRLPRPRPRPPPLPRP
shrunken log2 fold change: 0.616

RRIRYRPPRLPRPRPRPPPPPRP
shrunken log2 fold change: 1.2

RRIRYRPPRLPRPRPRPPQEPRP
shrunken log2 fold change: 1.9

RRIRYRPPRLPRPRPRPPRAPRP
shrunken log2 fold change: 0.403

RRIRYRPPRLPRPRPRPPRDPRP
shrunken log2 fold change: 0.102

RRIRYRPPRLPRPRPRPPSYPRP
shrunken log2 fold change: -0.156

RRIRYRPPRLPRPRPRPPTPPRP
shrunken log2 fold change: 0.104

RRIRYRPPRLPRPRPRPPVEPRP
shrunken log2 fold change: -0.108

RRIRYRPPRLPRPRPRPPVSPRP
shrunken log2 fold change: -0.378

RRIRYRPPRLPRPRPRPPYDPRP
shrunken log2 fold change: -0.553

RRIRYRPPRLPRPRPRPQDAPRP
shrunken log2 fold change: -0.215

RRIRYRPPRLPRPRPRPQFIPRP
shrunken log2 fold change: -1.19

RRIRYRPPRLPRPRPRPQFQPRP
shrunken log2 fold change: -0.718

RRIRYRPPRLPRPRPRPQFTPRP
shrunken log2 fold change: -0.308

RRIRYRPPRLPRPRPRPQFVPRP
shrunken log2 fold change: 0.119

RRIRYRPPRLPRPRPRPQFWPRP
shrunken log2 fold change: 0.313

RRIRYRPPRLPRPRPRPQGEPRP
shrunken log2 fold change: -0.325

RRIRYRPPRLPRPRPRPQGIPRP
shrunken log2 fold change: -0.236

RRIRYRPPRLPRPRPRPQHFPRP
shrunken log2 fold change: -0.0787

RRIRYRPPRLPRPRPRPQIWPRP
shrunken log2 fold change: -0.662

RRIRYRPPRLPRPRPRPQKEPRP
shrunken log2 fold change: -0.245

RRIRYRPPRLPRPRPRPQLFPRP
shrunken log2 fold change: -0.745

RRIRYRPPRLPRPRPRPQLVPRP
shrunken log2 fold change: -0.045

RRIRYRPPRLPRPRPRPQMAPRP
shrunken log2 fold change: -1.66

RRIRYRPPRLPRPRPRPQMIPRP
shrunken log2 fold change: 0.0722

RRIRYRPPRLPRPRPRPQNCPRP
shrunken log2 fold change: -0.0075

RRIRYRPPRLPRPRPRPQNDPRP
shrunken log2 fold change: -1.63

RRIRYRPPRLPRPRPRPQPCPRP
shrunken log2 fold change: 0.025

RRIRYRPPRLPRPRPRPQPQPRP
shrunken log2 fold change: -0.0927

RRIRYRPPRLPRPRPRPQSMPRP
shrunken log2 fold change: -0.451

RRIRYRPPRLPRPRPRPQWHPRP
shrunken log2 fold change: -0.638

RRIRYRPPRLPRPRPRPQWKPRP
shrunken log2 fold change: -0.01

RRIRYRPPRLPRPRPRPQWQPRP
shrunken log2 fold change: -0.00114

RRIRYRPPRLPRPRPRPQYKPRP
shrunken log2 fold change: -0.179

RRIRYRPPRLPRPRPRPRFFPRP
shrunken log2 fold change: -0.0565

RRIRYRPPRLPRPRPRPRFRPRP
shrunken log2 fold change: -0.213

RRIRYRPPRLPRPRPRPRFTPRP
shrunken log2 fold change: -0.17

RRIRYRPPRLPRPRPRPRFYPRP
shrunken log2 fold change: -0.45

RRIRYRPPRLPRPRPRPRGDPRP
shrunken log2 fold change: 0.316

RRIRYRPPRLPRPRPRPRGFPRP
shrunken log2 fold change: -0.0875

RRIRYRPPRLPRPRPRPRGPPRP
shrunken log2 fold change: 0.127

RRIRYRPPRLPRPRPRPRHKPRP
shrunken log2 fold change: -0.208

RRIRYRPPRLPRPRPRPRHQPRP
shrunken log2 fold change: -0.111

RRIRYRPPRLPRPRPRPRICPRP
shrunken log2 fold change: 0.00835

RRIRYRPPRLPRPRPRPRIPPRP
shrunken log2 fold change: -0.353

RRIRYRPPRLPRPRPRPRKFPRP
shrunken log2 fold change: -1.72

RRIRYRPPRLPRPRPRPRKKPRP
shrunken log2 fold change: -0.0257

RRIRYRPPRLPRPRPRPRKMPRP
shrunken log2 fold change: -0.178

RRIRYRPPRLPRPRPRPRLKPRP
shrunken log2 fold change: 3.7

RRIRYRPPRLPRPRPRPRMGPRP
shrunken log2 fold change: -0.0782

RRIRYRPPRLPRPRPRPRMQPRP
shrunken log2 fold change: -0.673

RRIRYRPPRLPRPRPRPRMTPRP
shrunken log2 fold change: -0.131

RRIRYRPPRLPRPRPRPRNIPRP
shrunken log2 fold change: -0.00665

RRIRYRPPRLPRPRPRPRNQPRP
shrunken log2 fold change: -0.32

RRIRYRPPRLPRPRPRPRPQPRP
shrunken log2 fold change: 0.438

RRIRYRPPRLPRPRPRPRPVPRP
shrunken log2 fold change: 0.0983

RRIRYRPPRLPRPRPRPRQDPRP
shrunken log2 fold change: -0.216

RRIRYRPPRLPRPRPRPRQNPRP
shrunken log2 fold change: 0.345

RRIRYRPPRLPRPRPRPRQPPRP
shrunken log2 fold change: 0.137

RRIRYRPPRLPRPRPRPRRIPRP
shrunken log2 fold change: 0.014

RRIRYRPPRLPRPRPRPRSIPRP
shrunken log2 fold change: -0.276

RRIRYRPPRLPRPRPRPRVAPRP
shrunken log2 fold change: 0.0343

RRIRYRPPRLPRPRPRPRYMPRP
shrunken log2 fold change: -0.33

RRIRYRPPRLPRPRPRPSAHPRP
shrunken log2 fold change: -0.117

RRIRYRPPRLPRPRPRPSDLPRP
shrunken log2 fold change: -1.92

RRIRYRPPRLPRPRPRPSEHPRP
shrunken log2 fold change: -0.488

RRIRYRPPRLPRPRPRPSEYPRP
shrunken log2 fold change: -0.431

RRIRYRPPRLPRPRPRPSFEPRP
shrunken log2 fold change: -0.689

RRIRYRPPRLPRPRPRPSGKPRP
shrunken log2 fold change: -0.447

RRIRYRPPRLPRPRPRPSHAPRP
shrunken log2 fold change: -0.242

RRIRYRPPRLPRPRPRPSHIPRP
shrunken log2 fold change: -1.45

RRIRYRPPRLPRPRPRPSHTPRP
shrunken log2 fold change: -1.39

RRIRYRPPRLPRPRPRPSIKPRP
shrunken log2 fold change: -0.952

Source: the supplement of paper PMC9112550, “Optimization of the antimicrobial peptide Bac7 by deep mutational scanning” (BMC Biology, 2022)
